According to patent US20130288389A1:

How the values were obtained:
Experiment in all cases: cell-based or functional assay
[1] = biological target: PrP^Sc of 263K scrapie-infected Syrian golden hamsters (Syrian golden hamster) (UniProt P04273)
[2] = biological target: human sporadic CJD (sCJD) brain homogenate PrP-res (human) (UniProt P04156)
[3] = biological target: sheep ARQ scrapie brain homogenate PrP-res (sheep) (UniProt P23907)

monoclonal antibody 15B3
IP-RT-QuIC (ThT fluorescence): lowest brain dilution detected in human plasma (dilution of brain tissue) [1]: 1e-10
IP-RTQ speed and sensitivity with higher 15B3 content on beads (fold higher 15B3 on beads) [1]: 12
eQuIC: lowest PrP-res amount detected in 0.5 ml human cerebrospinal fluid [2]: 10 ag
eQuIC: lowest PrP-res amount detected in 0.5 ml human plasma [2]: 10 ag
eQuIC ("20×" 15B3 beads): lowest PrP-res amount detected in 0.5 ml plasma [3]: 100 ag
